In publication doi:10.1101/2023.07.25.550441:

Columns and labels:
Test in all cases: SPR
[1] = target: Helarchaeia RING E3 (N-loopΔ), truncated E3 that lacks the N-loop (residues 1-19) (Helarchaeota)
[2] = target: Helarchaeia full-length RING E3 (Helarchaeota)
[3] = target: Asgard UEV (the UEV of UEV-Vps23 and UEV-Vps28), as tested against Asgard ubiquitin

Helarchaeia UEV (residues 1-132) of UEV-Vps23 (domain or fragment)
Kd [1]: 8140 µM
Kd [2]: 257 µM

Asgard ubiquitin, as tested against Asgard UEV
Kd [3]: 0.674 to 7.15 µM
